Test results taken from patent US20140087436.
Changes are numbered by the printed parent chain.

Legend:
Test in all cases: EMSA
[1] = target: T1, CbbR G98R (Ralstonia eutropha) (UniProt P42722); settings: fold change in affinity with 400 uM PEP vs no metabolite; RuBP 1.2, ATP 0.99
T1 sequence: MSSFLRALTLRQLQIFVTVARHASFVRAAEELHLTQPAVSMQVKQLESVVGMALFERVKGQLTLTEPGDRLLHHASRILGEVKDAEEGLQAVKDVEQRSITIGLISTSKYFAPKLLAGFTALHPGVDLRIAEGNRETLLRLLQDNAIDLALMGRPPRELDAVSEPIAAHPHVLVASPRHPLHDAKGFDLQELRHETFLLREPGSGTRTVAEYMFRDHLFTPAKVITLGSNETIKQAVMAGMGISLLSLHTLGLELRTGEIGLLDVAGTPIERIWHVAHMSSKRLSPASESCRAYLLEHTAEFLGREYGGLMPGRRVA

[2] = target: T2, CbbR R135C R135C (Ralstonia eutropha) (UniProt P42722); settings: fold change in affinity with 400 uM PEP vs no metabolite; RuBP 0.59, ATP 1.3
T2 sequence: T1 sequence with R98G, R135C

[3] = target: T3, CbbR R154H R154H (Ralstonia eutropha) (UniProt P42722); settings: fold change in affinity with 400 uM PEP vs no metabolite; RuBP 0.68, ATP 1.2
T3 sequence: T1 sequence with R98G, R154H

[4] = target: T4, CbbR R272Q (Ralstonia eutropha) (UniProt P42722); settings: fold change in affinity with 400 uM PEP vs no metabolite; RuBP 0.76, ATP 1.4; printed R272O in table
T4 sequence: T1 sequence with R98G, R272Q

[5] = target: T5, CbbR wild type (Ralstonia eutropha) (UniProt P42722); settings: fold change in affinity with 400 uM PEP vs no metabolite; RuBP 2.3, ATP 3.2, NADPH 1.5, RU5P 0.91, FBP 0.96
T5 sequence: T1 sequence with R98G

**Q.** For cbb promoter probe, 246 bp chromosomal, which binding signal [1] is on record?
**A.** Its binding signal is 2.7 fold.

**Q.** What about the binding signal [2] of the same substance?
**A.** Its binding signal is 0.97 fold.

**Q.** What about the binding signal [3] of the same substance?
**A.** The binding signal was 1.3 fold.

**Q.** And the binding signal [4]?
**A.** The binding signal was 0.85 fold.

**Q.** And the binding signal [5]?
**A.** The binding signal was 3.8 fold.
